Reference: IntAct's records for PubMed 23446637

B1: IQ calmodulin-binding motif-containing protein 1 (Homo sapiens), Q15051 (parent)
chain: MKPTGTDPRILSIAAEVAKSPEQNVPVILLKLKEIINITPLGSSELKKIKQDIYCYDLIQYCLLVLSQDYSRIQGGWTTISQLTQILSHCCVGLEPGEDAEEFYNELLPSAAENFLVLGRQLQTCFINAAKAEEKDELLHFFQIVTDSLFWLLGGHVELIQNVLQSDHFLHLLQADNVQIGSAVMMMLQNILQINSGDLLRIGRKALYSILDEVIFKLFSTPSPVIRSTATKLLLLMAESHQEILILLRQSTCYKGLRRLLSKQETGTEFSQELRQLVGLLSPMVYQEVEEQKLHQAACLIQAYWKGFQTRKRLKKLPSAVIALQRSFRSKRSKMLLEINRQKEEEDLKLQLQLQRQRAMRLSRELQLSMLEIVHPGQVEKHYREMEEKSALIIQKHWRGYRERKNFHQQRQSLIEYKAAVTLQRAALKFLAKCRKKKKLFAPWRGLQELTDARRVELKKRVDDYVRRHLGSPMSDVVSRELHAQAQERLQHYFMGRALEERAQQHREALIAQISTNVEQLMKAPSLKEAEGKEPELFLSRSRPVAAKAKQAHLTTLKHIQAPWWKKLGEESGDEIDVPKDELSIELENLFIGGTKPP

Variants of: B1
Details: with ce290_human CEP290, O15078
Sequence of ce290_human CEP290, O15078 (O15078 whole entry): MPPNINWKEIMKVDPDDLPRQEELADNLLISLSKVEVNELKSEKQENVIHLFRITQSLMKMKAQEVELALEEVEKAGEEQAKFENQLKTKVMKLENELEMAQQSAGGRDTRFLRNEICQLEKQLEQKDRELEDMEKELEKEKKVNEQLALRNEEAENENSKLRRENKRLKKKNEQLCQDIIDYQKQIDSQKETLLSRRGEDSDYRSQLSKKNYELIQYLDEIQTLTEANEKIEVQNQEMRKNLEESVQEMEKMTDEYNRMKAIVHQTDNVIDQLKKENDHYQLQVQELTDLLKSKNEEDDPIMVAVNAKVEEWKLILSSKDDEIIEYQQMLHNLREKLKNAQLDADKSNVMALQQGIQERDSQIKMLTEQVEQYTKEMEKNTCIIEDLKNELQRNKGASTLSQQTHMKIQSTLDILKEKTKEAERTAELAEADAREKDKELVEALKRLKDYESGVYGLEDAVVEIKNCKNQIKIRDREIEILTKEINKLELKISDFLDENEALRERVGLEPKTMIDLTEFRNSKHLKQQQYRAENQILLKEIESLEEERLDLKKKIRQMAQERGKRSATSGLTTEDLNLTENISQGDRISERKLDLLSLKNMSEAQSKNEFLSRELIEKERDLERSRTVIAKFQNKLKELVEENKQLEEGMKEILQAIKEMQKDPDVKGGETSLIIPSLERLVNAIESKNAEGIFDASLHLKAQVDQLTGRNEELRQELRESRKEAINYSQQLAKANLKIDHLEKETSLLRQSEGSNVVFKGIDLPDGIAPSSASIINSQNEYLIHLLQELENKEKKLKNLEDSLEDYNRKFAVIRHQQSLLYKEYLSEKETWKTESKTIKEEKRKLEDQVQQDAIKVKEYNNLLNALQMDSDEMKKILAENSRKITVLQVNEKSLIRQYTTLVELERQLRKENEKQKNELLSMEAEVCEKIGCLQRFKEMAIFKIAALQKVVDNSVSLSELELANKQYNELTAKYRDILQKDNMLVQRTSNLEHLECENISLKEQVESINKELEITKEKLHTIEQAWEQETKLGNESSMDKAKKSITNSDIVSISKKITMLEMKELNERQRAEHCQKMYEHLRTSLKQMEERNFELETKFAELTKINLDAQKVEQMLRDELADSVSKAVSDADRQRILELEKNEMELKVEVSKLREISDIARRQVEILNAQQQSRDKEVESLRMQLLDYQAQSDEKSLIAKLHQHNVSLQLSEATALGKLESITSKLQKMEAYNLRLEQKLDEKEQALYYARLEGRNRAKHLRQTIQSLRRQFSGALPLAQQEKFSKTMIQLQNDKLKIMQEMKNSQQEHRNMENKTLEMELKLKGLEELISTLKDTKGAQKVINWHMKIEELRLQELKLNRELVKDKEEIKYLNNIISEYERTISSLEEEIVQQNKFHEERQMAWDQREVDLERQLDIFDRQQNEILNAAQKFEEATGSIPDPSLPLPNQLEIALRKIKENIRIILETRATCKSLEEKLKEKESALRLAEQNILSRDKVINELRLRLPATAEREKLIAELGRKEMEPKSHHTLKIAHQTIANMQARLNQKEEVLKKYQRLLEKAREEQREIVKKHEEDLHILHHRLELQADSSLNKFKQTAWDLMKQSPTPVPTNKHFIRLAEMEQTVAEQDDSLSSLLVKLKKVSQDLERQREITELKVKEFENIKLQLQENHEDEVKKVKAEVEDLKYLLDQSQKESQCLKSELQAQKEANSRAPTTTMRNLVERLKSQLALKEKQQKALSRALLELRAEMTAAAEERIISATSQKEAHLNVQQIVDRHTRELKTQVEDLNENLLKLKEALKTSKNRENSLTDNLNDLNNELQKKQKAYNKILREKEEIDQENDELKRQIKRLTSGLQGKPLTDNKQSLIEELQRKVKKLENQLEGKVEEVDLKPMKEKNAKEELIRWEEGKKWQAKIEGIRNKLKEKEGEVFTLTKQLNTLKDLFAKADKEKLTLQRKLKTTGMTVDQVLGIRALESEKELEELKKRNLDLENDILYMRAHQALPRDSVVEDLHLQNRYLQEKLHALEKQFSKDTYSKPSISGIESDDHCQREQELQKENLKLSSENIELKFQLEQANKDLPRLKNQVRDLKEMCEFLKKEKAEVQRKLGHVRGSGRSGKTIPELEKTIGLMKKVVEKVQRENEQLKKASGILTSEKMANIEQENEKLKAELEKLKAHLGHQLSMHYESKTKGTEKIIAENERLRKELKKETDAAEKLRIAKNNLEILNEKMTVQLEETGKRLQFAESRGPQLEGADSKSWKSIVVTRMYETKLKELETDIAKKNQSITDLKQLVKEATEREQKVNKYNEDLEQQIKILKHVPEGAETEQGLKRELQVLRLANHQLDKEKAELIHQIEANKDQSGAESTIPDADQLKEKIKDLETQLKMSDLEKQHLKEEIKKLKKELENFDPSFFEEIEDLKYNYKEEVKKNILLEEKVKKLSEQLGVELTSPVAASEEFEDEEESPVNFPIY

Row | Variant | effect of a mutation on the interaction
1 | A549K | disrupting interaction
